Measured values taken from patent US20100204147A1, “Methods For Delivering Thymosin Beta 4, Analogues, Isoforms and Other Derivatives” (REGENERX BIOPHARMACEUTICALS, INC., priority 2003, published 2010).

Columns and labels:
Type in all cases: biochemical
[1] = target: T1, αC-domain (residues Aα221-610) (Homo sapiens, UniProt P02671); assay: ELISA and kinetic analysis of incorporation into immobilized αC-domain
T1 construct: human fibrinogen αC-domain (residues Aα221-610); made in house; host or cells: E. coli, pET20b expression vector
T1 sequence (P02671 240-629): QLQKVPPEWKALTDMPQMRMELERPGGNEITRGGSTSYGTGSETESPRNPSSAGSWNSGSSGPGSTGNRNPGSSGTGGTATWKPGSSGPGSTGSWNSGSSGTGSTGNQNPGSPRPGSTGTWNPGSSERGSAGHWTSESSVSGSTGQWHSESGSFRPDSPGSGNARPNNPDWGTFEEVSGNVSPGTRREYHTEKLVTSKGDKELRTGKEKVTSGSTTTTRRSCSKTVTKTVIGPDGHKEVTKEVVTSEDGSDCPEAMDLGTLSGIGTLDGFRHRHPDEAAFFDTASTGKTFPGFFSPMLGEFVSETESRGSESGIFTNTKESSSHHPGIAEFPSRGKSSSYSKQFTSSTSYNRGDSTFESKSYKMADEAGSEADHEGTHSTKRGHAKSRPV
Procedure: (§1) The interaction between thymosin β4 and fibrin(ogen) and its fragments in the presence or absence of FXIIIa was studies by ELISA using plastic microliter plates. Wells of microliter plates were coated overnight at […] with fibrinogen and fibrin at 10 μg/mL or with the recombinant fragments of 20 μg/ml, all in 0.1 M NaHCO3 buffer, pH 8.3. Fibrin was made by addition to the wells of a mixture containing 10 μg/mL fibrinogen 1 NIH u/ml thrombin and 400 u/ml aprotinin, followed by overnight incubation at +4° C. The wells were then blocked by incubation with Super Blocker (Pierce) at 37° C. for 1 h. Following washing with TBS containing 0.05% Tween-20 (TBS-Tween), the indicated concentrations of thymosin β4, FXIII, FXIIIa(Thr) and FXIIIa(Ca) were added to the wells and incubated for 2-2.5 h at 37° C. Bound (incorporated) thymosin β4 was detected by the reaction with rabbit anti-thymosin β4 serum and peroxidase-conjugated anti-rabbit IgG. A TMB Microwell Peroxidase Substrase was added to the wells, and the incorporated thymosin β4 was measured spectrophotometrically at 450 nm.
(§2) To analyze kinetics of the incorporation of thymosin β4 into different fibrin(ogen) fragments, they were immobilized onto the wells of microliter plates (as described above, except that the concentration of all fragments was 20 μg/mL) and incubated with several concentrations of thymosin β4 in the presence of 10 μg/L thrombin-activated factor XIIIa. The incubation mixtures were inhibited every 15 min during 1 hour of incubation by the addition of iodacetamide to final concentration 10 mM. Incorporated thymosin β4 at each time point was detected with rabbit anti-thymosin β4 serum as described above. The initial rates of the reaction of incorporation (V) at different concentrations of thymosin β4 were determined from the slopes of the reaction time course plots and expressed as tangent α=A450/t (min), where A450 represents absorbance at 450 nm in optical units (o.u) which is proportional to the amount of incorporated thymosin β4. […]

[2] = target: T2, recombinant γ-module (residues γ148-411) (Homo sapiens, UniProt P02679); assay: ELISA and kinetic analysis of incorporation into immobilized γ-module
T2 construct: comprising residues 148-411 of the human fibrinogen γ chain; made in house; host or cells: E. coli, pET20b expression vector
T2 sequence (P02679 174-437 isoform P02679-2): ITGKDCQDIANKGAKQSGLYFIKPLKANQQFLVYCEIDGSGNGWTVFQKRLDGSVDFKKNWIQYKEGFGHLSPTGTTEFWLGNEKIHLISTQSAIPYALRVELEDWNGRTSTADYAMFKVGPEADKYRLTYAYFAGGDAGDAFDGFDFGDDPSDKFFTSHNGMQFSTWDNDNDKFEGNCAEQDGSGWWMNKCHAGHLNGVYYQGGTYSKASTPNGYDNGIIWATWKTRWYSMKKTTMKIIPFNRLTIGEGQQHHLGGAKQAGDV
Procedure: as §1, §2

Aα221-391 sub-fragment = target: T3, Aα221-391 sub-fragment (Homo sapiens, UniProt P02671); assay: ELISA of incorporation into immobilized Aα221-391 sub-fragment
T3 construct: (residues Aα221-391 and Aα392-610, respectively); made in house; host or cells: E. coli, pET20b expression vector
T3 sequence (P02671 240-410): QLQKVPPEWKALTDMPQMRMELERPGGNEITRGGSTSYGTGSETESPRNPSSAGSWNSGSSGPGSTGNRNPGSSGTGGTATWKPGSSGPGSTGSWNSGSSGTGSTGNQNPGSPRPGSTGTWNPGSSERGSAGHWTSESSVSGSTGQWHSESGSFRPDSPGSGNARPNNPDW
Procedure: as §1

[3] = non-activated factor XIII or without it

non-covalent interaction with αC-domain (ELISA) [1, 3]: no significant non-covalent interaction
incorporation into immobilized αC-domain (ELISA) ([1]; presence of factor XIIIa): incorporated effectively
Km ([1]; thrombin-activated factor XIIIa, Lineweaver-Burk plot, read-out: apparent Michaelis constant (Km) for incorporation into the αC-domain): 17.6 ± 2.5 µM
non-covalent interaction with γ-module (ELISA) [2, 3]: no significant non-covalent interaction
incorporation into immobilized γ-module (ELISA) ([2]; presence of factor XIIIa): incorporated effectively
Km ([2]; thrombin-activated factor XIIIa, Lineweaver-Burk plot, read-out: apparent Michaelis constant (Km) for incorporation into the γ-module): 183 ± 29 µM
non-covalent interaction with Aα221-391 sub-fragment (ELISA) (Aα221-391 sub-fragment; [3]): no significant non-covalent interaction
incorporation into immobilized Aα221-391 (ELISA) (Aα221-391 sub-fragment; presence of factor XIIIa): very low
Substance: thymosin β4
